# Laboratory results: the supplement of paper PMC10065799, “High-throughput profiling of sequence recognition by tyrosine kinases and SH2 domains using bacterial peptide display” (eLife, 2023)
# Molecular target: FGFR1 (UniProt P11362)
# Experiment: phosphorylation enrichment, bacterial display (enrichment ratio); higher = better substrate or ligand; peptides without Tyr show the background
# 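Further: 11-residue human phosphosite peptides and single-mutation variants displayed on the E. coli surface, counted by deep sequencing, each peptide's frequency after selection divided by its frequency in the unselected input library; frequency after pTyr selection over input frequency; kinase dosed for 20-30% of maximal phosphorylation in three min.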
# Chain of FGFR1 (P11362 whole entry, looked up): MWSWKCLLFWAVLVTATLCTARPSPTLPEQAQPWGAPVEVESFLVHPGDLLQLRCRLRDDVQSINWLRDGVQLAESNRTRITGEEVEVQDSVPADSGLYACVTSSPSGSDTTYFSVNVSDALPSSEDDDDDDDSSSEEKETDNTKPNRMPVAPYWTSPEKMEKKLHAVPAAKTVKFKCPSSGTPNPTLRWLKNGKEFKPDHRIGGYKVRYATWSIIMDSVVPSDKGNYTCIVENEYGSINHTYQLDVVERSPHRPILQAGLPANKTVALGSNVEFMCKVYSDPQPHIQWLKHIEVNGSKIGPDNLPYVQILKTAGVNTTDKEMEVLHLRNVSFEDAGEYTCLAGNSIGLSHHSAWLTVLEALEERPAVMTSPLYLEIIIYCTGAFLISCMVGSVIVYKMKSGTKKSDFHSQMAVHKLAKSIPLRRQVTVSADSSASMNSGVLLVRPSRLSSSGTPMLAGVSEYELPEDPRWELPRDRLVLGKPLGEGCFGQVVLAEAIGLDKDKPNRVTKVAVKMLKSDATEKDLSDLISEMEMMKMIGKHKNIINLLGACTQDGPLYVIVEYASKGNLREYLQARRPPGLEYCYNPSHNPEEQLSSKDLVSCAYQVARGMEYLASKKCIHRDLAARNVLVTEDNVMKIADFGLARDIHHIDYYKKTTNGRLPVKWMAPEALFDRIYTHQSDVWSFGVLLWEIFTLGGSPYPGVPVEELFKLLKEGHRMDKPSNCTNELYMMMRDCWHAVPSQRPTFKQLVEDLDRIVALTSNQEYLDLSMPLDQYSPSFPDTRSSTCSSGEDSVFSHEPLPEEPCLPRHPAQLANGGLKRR
row,Sequence,phosphorylation enrichment
1,AKFPSYEKNKK [FOXL2_Y91_F90S],0.618
2,ETLLYYGCRRS [POR_Y564],0.795
3,QTEAPYRFIFM [PTPN11_Y511_Q510P_YF],2.71
4,SFPSYYTSHVQ [NEFL_Y443],1.86
5,CKRQFYLYKGK [RSPO4_Y112],0.427
6,MKGEFYRFLAE [YWHAG_Y131_D129E_YF],0.336
7,QTWKTYVRHQQ [SFI1_Y164_Q167H],0.535
8,KPGVNYYFQVS,2.49
9,KNRDVSSSDYF [USP24_Y2134_Y2134S],0.523
10,YSIDYYRVGGH [NTRK2_Y707_T704I],12.5
11,EVVGRYSVHFA [MLH1_Y183_N187Y_YF],0.529
12,DRLPSYLDKVR [KRT12_Y139_A137P],0.408
13,VDTFWYKLLKR [EPM2A_Y86_F88L],0.439
14,PEADKYRLPYA [FGG_Y300_T303P],0.439
15,LAVNPYGPPDP,0.436
16,CTLLPYYSARV [DGKE_Y269],0.485
17,FVKEPYIQSRF [HIPK4_Y175_YF],0.375

row,Sequence,phosphorylation enrichment
1,EKKKKYMLPLD [DNM2_Y563_E560K],0.5
2,SHTPSYCDEWL [RITA1_Y109_S113W],0.529
3,GKPENYRRLDI [VHL_Y175_V170G],0.335
4,NKYVAYIESQG [KDM4B_Y34],0.567
5,VNTMLYEKFTF [TEK_Y1108_T1106M_YF],0.621
6,GFILMYDITNK [RAB3C_Y110_E115K],0.617
7,RHSGSYFVTSV [APC_Y2838_L2839F],0.574
8,FRASFYRKGGC [ALK_Y1283_YF],0.531
9,SLFQFYFQQKG [CHKB_Y381_R377L],0.521
10,LWKWRYEELKE [CCDC102B_Y299_K298R],0.503
11,KPRKPYTIKKP [BRD2_Y715],0.864
12,GEFFRYLAEVA [YWHAG_Y133_D129E_YF],0.498
13,NLMPAYHKCIQ [CYP21A2_Y190_Y191H],0.493
14,GESQGYDIMEP [MSH2_Y863],0.424
15,KFSNQYKATIG [RAB7A_Y37],0.351
16,TDIVAYSGRVQ [SPTBN2_Y477],0.214

# Molecular target: FGFR3 (UniProt P22607)
# Experiment: as above
# Chain of FGFR3 (P22607 whole entry, looked up): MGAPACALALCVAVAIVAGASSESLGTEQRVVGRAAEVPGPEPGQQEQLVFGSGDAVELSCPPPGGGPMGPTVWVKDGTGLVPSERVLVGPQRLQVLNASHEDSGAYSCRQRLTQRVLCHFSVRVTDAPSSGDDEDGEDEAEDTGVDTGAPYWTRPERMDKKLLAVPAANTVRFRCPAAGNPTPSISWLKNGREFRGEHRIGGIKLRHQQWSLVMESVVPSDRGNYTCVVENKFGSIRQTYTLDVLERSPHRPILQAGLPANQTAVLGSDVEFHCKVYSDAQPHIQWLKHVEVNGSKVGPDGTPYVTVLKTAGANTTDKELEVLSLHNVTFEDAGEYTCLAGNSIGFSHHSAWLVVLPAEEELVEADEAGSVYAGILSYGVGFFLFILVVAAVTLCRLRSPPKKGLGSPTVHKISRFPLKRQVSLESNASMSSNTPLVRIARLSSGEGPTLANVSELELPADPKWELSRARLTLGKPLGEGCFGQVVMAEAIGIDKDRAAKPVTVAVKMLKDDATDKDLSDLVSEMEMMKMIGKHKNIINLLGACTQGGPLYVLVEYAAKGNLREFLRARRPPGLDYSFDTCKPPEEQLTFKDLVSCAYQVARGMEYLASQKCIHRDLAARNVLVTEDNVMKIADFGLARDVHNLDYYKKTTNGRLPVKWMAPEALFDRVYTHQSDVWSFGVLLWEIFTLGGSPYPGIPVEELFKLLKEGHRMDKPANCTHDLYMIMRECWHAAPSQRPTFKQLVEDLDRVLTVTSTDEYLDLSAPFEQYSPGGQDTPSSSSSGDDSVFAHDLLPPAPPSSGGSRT
row,Sequence,phosphorylation enrichment
1,AKFPSYEKNKK [FOXL2_Y91_F90S],0.475
2,ETLLYYGCRRS [POR_Y564],0.71
3,QTEAPYRFIFM [PTPN11_Y511_Q510P_YF],1.98
4,SFPSYYTSHVQ [NEFL_Y443],1.76
5,CKRQFYLYKGK [RSPO4_Y112],0.704
6,MKGEFYRFLAE [YWHAG_Y131_D129E_YF],0.529
7,QTWKTYVRHQQ [SFI1_Y164_Q167H],2.21
8,KPGVNYYFQVS,2.05
9,KNRDVSSSDYF [USP24_Y2134_Y2134S],0.521
10,YSIDYYRVGGH [NTRK2_Y707_T704I],9.07
11,EVVGRYSVHFA [MLH1_Y183_N187Y_YF],0.676
12,DRLPSYLDKVR [KRT12_Y139_A137P],0.485
13,VDTFWYKLLKR [EPM2A_Y86_F88L],0.644
14,PEADKYRLPYA [FGG_Y300_T303P],0.552
15,LAVNPYGPPDP,0.493
16,CTLLPYYSARV [DGKE_Y269],0.699
17,FVKEPYIQSRF [HIPK4_Y175_YF],0.479

row,Sequence,phosphorylation enrichment
1,EKKKKYMLPLD [DNM2_Y563_E560K],0.506
2,SHTPSYCDEWL [RITA1_Y109_S113W],0.779
3,GKPENYRRLDI [VHL_Y175_V170G],0.376
4,NKYVAYIESQG [KDM4B_Y34],0.625
5,VNTMLYEKFTF [TEK_Y1108_T1106M_YF],0.697
6,GFILMYDITNK [RAB3C_Y110_E115K],1.17
7,RHSGSYFVTSV [APC_Y2838_L2839F],0.565
8,FRASFYRKGGC [ALK_Y1283_YF],0.532
9,SLFQFYFQQKG [CHKB_Y381_R377L],0.833
10,LWKWRYEELKE [CCDC102B_Y299_K298R],1.02
11,KPRKPYTIKKP [BRD2_Y715],2.2
12,GEFFRYLAEVA [YWHAG_Y133_D129E_YF],0.767
13,NLMPAYHKCIQ [CYP21A2_Y190_Y191H],0.707
14,GESQGYDIMEP [MSH2_Y863],0.642
15,KFSNQYKATIG [RAB7A_Y37],0.411
16,TDIVAYSGRVQ [SPTBN2_Y477],1.05
